From patent US20100136664A1, “CARBOXIN […] FOR FLAMMULINA VELUTIPES” (MYCOMAGIC BIOTECHNOLOGY CO., LTD., priority 2008, published 2010)

System: Flammulina velutipes
Experiment: Test for the function of Cbr sequence: growth of transformed strains on PDA plate medium containing carboxin
Type: cell-based
Details: ten transformed Flammulina velutipes strains (electroporation, pMush-A-mFvCbr) cultured in PDA plate medium containing 2 mg/ml carboxin for one week
Method: The vector for expressing mutant Cbr sequence is pMush-A vector containing GPD promoter (pGPD) and hygromycin resistance (hyg) marker. The mutant Cbr sequence preserved in mFvCbrAMV vector (FIG. 1B) and pMush-A vector were sliced with BamH I and Spe I, respectively. The mutant Cbr sequence (mFvCbr) was ligated to the corresponding sites in pMush-A vector using T4 DNA ligase. The constructed vector is called pMush-A-mFvCbr (FIG. 2B).
The mycelia of Flammulina velutipes were cultured in PDB medium at 25° C. for 1-2 weeks. The resulting mycelia were disrupted by a homogenizator and then treated with lysing enzyme solution containing lysing enzyme (Sigma, St. Louis, Mo., U.S.A.), mannitol and potassium phosphate buffer. The resulting mycelial fragments were dissolved in 100 μl electroporation buffer solution as the competent cells used in the electroporation. The well-prepared competent cells were added to the mutant Cbr DNA solution obtained from Example 2 and then placed on ice for 10 minutes. An electroporation was conducted for the resulting solution using Electro Cell Manipulator ECM 630 Electroporation System (BTX, San Diego, Calif., U.S.A.) to obtain transformed mycelia. […] Ten transformed strains were selected and cultured in PDA plate medium containing 2 mg/ml carboxin for one week. […]

B1: mutant Cbr DNA: Flammulina velutipes succinate dehydrogenase iron-sulfur protein gene with point mutation His238 to Leu (CAC→CTC), SEQ ID NO: 1 (nucleic acid)
DNA: ATGCAGTCCGTCGCCCGTCGTTTCTCTGCCGCCGCCGTGCGCCGTAGCTTTTCTACCACTTCTGTCGCGTTCCAGGCTACACCGCTCGAGAAGCCCGTGCTGAACAAGGAATTCAAGATTTACCGCTGGAATCCTGATGAGCCGGAGAAGAAACCGACGCTACAGAGCTACATAATCGACCTGAACCAGACAGGGCCAATGATTCTGGATGCTCTCATCAAGATTAAAAACGAAATCGACCCTACGCTTACCTTCAGACGAAGTTGTCGCGAGGGCATTTGCGGATCTTGTGCGAGAAAAATCGACGGGCAGAACACGTTGGCCTGTCTCTGCAGGATTGATAGGAATGCTGGGAAGGATTCGAAGATCTATCCCTTACCACACAGTGAGTGTCTCATCTGAGCTCTGCGTATCTGAGTGCTAACTTAGATTCCAGTGTACATCGTCAAGGACCTCGTACCGGATCTCACCTACTTCTACAAGCAGTACAAGTCTATCCAACCATACCTTCAGAACGACAACCCACCTGCGTCAGGTCTGTTCATTATTTTGCACCCTCCCCTTTGCTCGGCTTACCGAATCGCTTCTAGGTGAATTCCTCCAAACGCAAGATGACCGCAAGAAGCTCGACGGACTCTACGAGTGTATCCTTTGCGCGTGTTGTTCGACGTCTTGCCCTTCGTATTGGTGGAACCAAGACGAATACCTTGGACCCGCTACTTTGATGCAAGCATATCGCTGGATCGCCGACTCGAGAGTACGTTCTGCTCGTCGTATCATGTTTTATCTCATACTGATATACTCTTAGGACTCTTATGCCGCAGAACGCAAGGAAAAGCTCCAAAACGAGATGAGCATGTACCGATGCCTCACTATCTTCAACTGCTCGCGGACATGCCCCAAGGGTCTCAACCCCGCTGCCGCCATCGCGAAAATCAAGCTTGAGCTTGCGGCCGAGTAA
modifications: Flammulina velutipes
  growth of transformed strains in PDA plate medium containing carboxin (carboxin resistance): Four strains grew
